The values below come from publication PMC3102601.

Common to all, as to experiment: purified protein
Substrate in series [1]: O=CCP(=O)(O)O
The following applies: Zn2+; 25.0 °C.

Substrate in series [2]: O=[N+]([O-])c1ccc(OP(=O)(O)O)cc1
The following applies: Zn2+; 25.0 °C.

Substrate in series [3]: Nc1ncnc2c1ncn2[C@@H]1O[C@H](COP(=O)(O)OP(=O)(O)OP(=O)(O)O)[C@@H](O)[C@H]1O
Type of series: biochemical, Pseudomonas fluorescens. The following applies: Zn2+ active site; phosphoryl transfer to Thr64; 25.0 °C.

B1: phosphonoacetate hydrolase (PAc hydrolase) (Pseudomonas fluorescens) (protein)
chain: TQLISVNSRSYRLSSAPTIVICVDGCEQEYINQAIQAGQAPFLAELTGFGTVLTGDCVVPSFTNPNNLSIVTGAPPSVHGICGNFFFDQETQEEVLMNDAKYLRAPTILAEMAKAGQLVAVVTAKDKLRNLLGHQLKGICFSAEKADQVNLEEHGVENILARVGMPVPSVYSADLSEFVFAAGLSLLTNERPDFMYLSTTDYVQHKHAPGTPEANAFYAMMDSYFKRYHEQGAIVAITADHGMNAKTDAIGRPNILFLQDLLDAQYGAQRTRVLLPITDPYVVHHGALGSYATVYLRDAVPQRDAIDFLAGIAGVEAVLTRSQACQRFELPEDRIGDLVVLGERLTVLGSAADKHDLSGLTVPLRSHGGVSEQKVPLIFNRKLVGLDSPGRLRNFDIIDLALNHLA
Usually Km stands for the concentration of substrate that gives half-maximal velocity. Broadly, the kcat is the maximal rate divided by the concentration of active sites. For orientation: kcat/Km means the turnover number divided by the Michaelis constant. For the protein B1, in the series “purified protein [1]”, the Km is 330 ± 10 µM, the kcat was 0.027 ± 0.01 s⁻¹ and the specificity constant (kcat/Km) was 80 M⁻¹ s⁻¹. For the same protein, in “purified protein [2]”, the Km was 14000 ± 200 µM, the kcat stood at 0.22 s⁻¹ and the catalytic efficiency (kcat/Km) was 20 M⁻¹ s⁻¹. In the series “purified protein [3]”, the Michaelis constant (Km) amounted to 1000 µM, the kcat was 0.0002 s⁻¹ and the kcat/Km is 0.2 M⁻¹ s⁻¹.
